According to article PMC11353242:

Columns and labels:
Experiment in all cases: pull-down; GFP-CEP55 proteins (355 nM) bound to GFP-Trap Magnetic Agarose beads; taxol-polymerised MTs (545 nM tubulin), pH adapted to 7.5, incubated 1 h at 4 °C; 6 washes; bound MTs detected by Western blot against β tubulin; MTs bound to CEP55^FL set as 100%
[1] = molecular target: His-GFP-CEP55^1–428 (C-terminus, aa 429–464, deleted) (UniProt Q53EZ4)
[2] = molecular target: His-GFP-CEP55^59–464 (N-terminus, aa 1–58, deleted) (UniProt Q53EZ4)
[3] = molecular target: His-GFP-CEP55^59–428 (N- and C-termini deleted) (UniProt Q53EZ4)

percent reduction of MT binding against CEP55^FL [1]: 20% | percent reduction of MT binding against CEP55^FL [2]: 20% | percent reduction of MT binding against CEP55^FL [3]: 60%
Substance: Microtubules polymerised with taxol from tubulin prepared from porcine brain (from UniProt P02550 1-451; Q767L7 1-444) (complex)
